Laboratory results from US20230250178A1 (published 2023).

Tests used:
murine CCR8 [1] = molecular target: T1, murine CCR8 (mouse, UniProt P56484 1-353); experiment: FACS, CHO-mCCR8
T1 construct: also called mCCR8; P56484_CCR8_MOUSE
T1 sequence: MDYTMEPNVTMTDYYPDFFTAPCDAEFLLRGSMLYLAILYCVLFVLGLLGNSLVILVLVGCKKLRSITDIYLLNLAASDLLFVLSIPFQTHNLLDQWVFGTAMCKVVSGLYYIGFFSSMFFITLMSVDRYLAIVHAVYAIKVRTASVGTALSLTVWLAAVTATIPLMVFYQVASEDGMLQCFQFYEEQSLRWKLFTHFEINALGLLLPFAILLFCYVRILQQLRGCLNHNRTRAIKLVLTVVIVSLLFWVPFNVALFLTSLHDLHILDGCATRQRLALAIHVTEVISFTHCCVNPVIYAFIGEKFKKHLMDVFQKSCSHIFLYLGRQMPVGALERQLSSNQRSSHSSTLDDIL

human CCR8 = molecular target: T2, human CCR8 (human, UniProt P51685 1-355); experiment: FACS
T2 construct: also called hCCR8; P51685_CCR8_HUMAN

cynomolgus CCR8 = molecular target: T3, cynomolgus CCR8 (cynomolgus, UniProt O97665 1-356 (rhesus entry)); experiment: FACS
T3 construct: also called cynoCCR8; G7NYJ2_CCR8_MACFA
T3 sequence (O97665 other isoform, or with tags, fused parts or gaps): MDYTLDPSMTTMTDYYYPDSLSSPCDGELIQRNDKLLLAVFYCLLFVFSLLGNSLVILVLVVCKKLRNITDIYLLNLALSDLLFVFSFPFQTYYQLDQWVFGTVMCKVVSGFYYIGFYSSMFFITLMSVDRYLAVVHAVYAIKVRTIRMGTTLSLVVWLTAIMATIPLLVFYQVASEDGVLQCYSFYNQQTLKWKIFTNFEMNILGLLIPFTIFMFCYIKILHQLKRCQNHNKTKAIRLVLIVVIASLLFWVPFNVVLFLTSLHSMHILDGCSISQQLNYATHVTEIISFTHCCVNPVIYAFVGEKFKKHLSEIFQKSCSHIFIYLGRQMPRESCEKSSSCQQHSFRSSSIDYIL

HSA alone = molecular target: T4, HSA alone (human, UniProt P02768 25-609); experiment: SPR, IgG captured
T4 construct: control analyte; also called human serum albumin

[2] = molecular target: T5, TPP-19951, His6-tagged murine CCR8 TRD fused with human serum albumin (mouse; human, not fully specified); experiment: SPR, IgG captured, TRD-HSA analyte
T5 construct: non-sulfated TRD; also called CCR8-HSA fusion protein (mouse); not shown: human serum albumin (HSA), C-terminal fusion partner
T5 chain: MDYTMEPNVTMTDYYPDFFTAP
Description: IgGs were captured using anti-human Fc IgGs covalently amine coupled to a CM5 sensor chip. […] The respective CCR8-HSA fusion protein was used as analyte with a concentration range of 1.56-200 nM in multicycle kinetics mode. Obtained sensorgrams were fitted to a 1:1 Langmuir binding model.

murine CCR8 [3] = molecular target: T1, murine CCR8; experiment: FACS, murine iTregs

B1: TPP-14099 (antibody, human IgG1, lambda, V domains shown)
VH: EVQLLESGGGLVQPGGSLRLSCAASGFTFSDYGVHWVRQAPGKGLEWVSGVSWNGSRTHYADSVKGRFTISRDNSKNTLYLQMNSLRAEDTAVYYCVTRGAWGQGTLVTVSS
VL: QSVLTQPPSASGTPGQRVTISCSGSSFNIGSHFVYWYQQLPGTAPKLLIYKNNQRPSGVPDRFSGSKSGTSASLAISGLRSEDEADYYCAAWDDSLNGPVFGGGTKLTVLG
notes: anti-murine CCR8, human IgG1 lambda; also called 497A-M005-F02-hIgG1Lambda
- EC50 (murine CCR8 [1]): 3 nM
- binding result (human CCR8): no binding
- binding result (cynomolgus CCR8): no binding
- binding result (HSA alone): no binding
- Kd [2]: 520 nM
- koff [2]: 0.0011 s⁻¹
- kon [2]: 2200 M⁻¹ s⁻¹
- EC50 (murine CCR8 [3]): 13.2 nM
